# According to patent US20100173324A1:
# Target: human CD27 expressed on CHO/DG44 cells (normal O-linked sugar chain) (human) (UniProt P26842)
# Assay: flow cytometry on CD27/DG44-4 cells
# UniProt P26842, sequence (P26842 20-260 H233R limits assumed): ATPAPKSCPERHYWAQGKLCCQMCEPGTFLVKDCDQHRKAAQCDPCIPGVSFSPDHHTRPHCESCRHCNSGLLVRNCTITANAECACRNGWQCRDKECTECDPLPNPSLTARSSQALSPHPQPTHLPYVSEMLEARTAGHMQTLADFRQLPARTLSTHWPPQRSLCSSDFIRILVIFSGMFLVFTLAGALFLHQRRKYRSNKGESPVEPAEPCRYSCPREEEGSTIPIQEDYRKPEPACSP
substance,measurement,value
Anti-CD27 Antibody (O323),EC50 (read off the curve),0.2 µg/mL
